The values below come from US20230392135, “ENGINEERED CAS ENDONUCLEASE VARIANTS FOR IMPROVED GENOME EDITING” (PIONEER HI-BRED INTERNATIONAL, INC., published 2023).

Common to all, as to conditions: tags: SV40 NLS; chain copies: 2
In data set [1] the target is T1, Cas-alpha 10 A40G+E81G (Syntrophomonas palmitatica, UniProt P0DW62 SEQ:1-497).
T1 chain: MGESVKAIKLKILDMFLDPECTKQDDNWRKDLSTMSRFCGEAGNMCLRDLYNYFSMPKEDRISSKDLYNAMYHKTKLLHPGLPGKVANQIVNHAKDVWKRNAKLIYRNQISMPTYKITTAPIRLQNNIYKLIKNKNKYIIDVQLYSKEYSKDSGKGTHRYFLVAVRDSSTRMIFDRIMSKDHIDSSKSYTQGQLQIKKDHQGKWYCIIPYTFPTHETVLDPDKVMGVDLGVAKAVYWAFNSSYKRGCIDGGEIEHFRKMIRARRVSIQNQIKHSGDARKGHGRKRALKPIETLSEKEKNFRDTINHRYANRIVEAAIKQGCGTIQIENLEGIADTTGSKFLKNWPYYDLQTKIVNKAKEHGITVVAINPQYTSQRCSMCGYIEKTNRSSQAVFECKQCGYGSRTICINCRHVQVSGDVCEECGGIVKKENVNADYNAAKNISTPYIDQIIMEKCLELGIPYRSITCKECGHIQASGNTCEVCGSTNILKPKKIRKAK
In words: cell_activity; PAM 5'-TTC; maize, 37 C.

For data set [2], the target named is T2, Cas-alpha 10 A40G+E81G+T335R (Syntrophomonas palmitatica, UniProt P0DW62 SEQ:1-497).
T2 chain: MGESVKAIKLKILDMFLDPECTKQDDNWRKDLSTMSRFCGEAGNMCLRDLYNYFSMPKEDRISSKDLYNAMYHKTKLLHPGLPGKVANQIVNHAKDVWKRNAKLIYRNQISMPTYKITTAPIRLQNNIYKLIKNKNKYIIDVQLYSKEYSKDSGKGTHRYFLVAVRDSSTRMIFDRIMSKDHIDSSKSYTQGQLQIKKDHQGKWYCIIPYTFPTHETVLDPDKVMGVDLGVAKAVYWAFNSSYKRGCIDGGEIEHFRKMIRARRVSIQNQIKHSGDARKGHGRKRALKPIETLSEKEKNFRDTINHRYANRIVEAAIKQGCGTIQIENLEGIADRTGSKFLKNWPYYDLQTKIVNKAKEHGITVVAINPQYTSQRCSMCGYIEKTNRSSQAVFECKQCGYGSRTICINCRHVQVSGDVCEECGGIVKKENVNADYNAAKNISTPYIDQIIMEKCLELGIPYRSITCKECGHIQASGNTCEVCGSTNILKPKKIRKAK
In words: cell_activity; PAM 5'-TTC; maize, 37 C.

Data set [3] addresses T1, Cas-alpha 10 A40G+E81G. In words: cell_activity; PAM 5'-TTC; yeast, 45 C; >10-fold sectored colonies at 37 C. How it is done: The cells were then resuspended in 1 ml of EZ 2 solution and aliquoted and either stored at −70° C. or used in the next step. Transformation was performed next by adding 0.5-1 μg (in less than 5 μl) of 2 micron yeast plasmid DNA to 50 μl of competent cells. Optionally, double-stranded DNA repair template with homology flanking the expected Cas-alpha double-strand break site was also included (0.5 μl at 50 μM). After gently mixing in the DNA, 500 μl of EZ 3 solution was added. Next, cells were incubated at 30° C. for 60-90 min. flicking or vortexing the cells 3-4 times over the duration of the incubation. After transformation, cells were grown-out in YPD broth for ˜3 hours, pelleted, washed once with 1 ml of sterile water, resuspended in 1 ml of sterile water, and then ˜200 μl plated onto selective media (for example but not limited to 6.7 g/L yeast nitrogen base without amino acids (Becton Dickinson), 20 g/L glucose (Phytotechnology Labs), 1.92 g/L yeast histidine dropout media (MP Biomedicals) and 20 g/L Bacto Agar (Becton Dickinson)). To determine the culture conditions optimal for activity, cells were incubated at 30° C. until colonies formed, or at a range of temperatures (typically 37° C. and 45° C.) overnight and then placed back at 30° C. until colony growth was visible. […]

The next data set concerns the target T3, Cas-alpha 10 E81G (Syntrophomonas palmitatica, UniProt P0DW62 SEQ:1-497).
T3 chain: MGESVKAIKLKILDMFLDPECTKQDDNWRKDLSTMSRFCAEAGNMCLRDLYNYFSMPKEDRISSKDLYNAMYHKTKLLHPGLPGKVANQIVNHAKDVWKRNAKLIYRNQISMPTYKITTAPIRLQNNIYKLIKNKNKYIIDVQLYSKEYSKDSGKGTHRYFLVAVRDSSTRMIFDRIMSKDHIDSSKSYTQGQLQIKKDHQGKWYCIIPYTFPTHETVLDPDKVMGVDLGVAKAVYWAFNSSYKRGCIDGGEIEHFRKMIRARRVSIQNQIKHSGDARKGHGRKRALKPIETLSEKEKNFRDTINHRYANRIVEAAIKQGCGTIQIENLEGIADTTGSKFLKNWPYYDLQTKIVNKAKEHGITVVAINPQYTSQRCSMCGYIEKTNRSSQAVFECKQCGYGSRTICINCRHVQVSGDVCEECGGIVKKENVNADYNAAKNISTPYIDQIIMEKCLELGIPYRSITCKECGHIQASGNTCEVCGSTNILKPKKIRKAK
In words: cell_activity; PAM 5'-TTC; yeast, 45 C.

The target of another data set is T4, Cas-alpha 10 A40G (Syntrophomonas palmitatica, UniProt P0DW62 SEQ:1-497).
T4 chain: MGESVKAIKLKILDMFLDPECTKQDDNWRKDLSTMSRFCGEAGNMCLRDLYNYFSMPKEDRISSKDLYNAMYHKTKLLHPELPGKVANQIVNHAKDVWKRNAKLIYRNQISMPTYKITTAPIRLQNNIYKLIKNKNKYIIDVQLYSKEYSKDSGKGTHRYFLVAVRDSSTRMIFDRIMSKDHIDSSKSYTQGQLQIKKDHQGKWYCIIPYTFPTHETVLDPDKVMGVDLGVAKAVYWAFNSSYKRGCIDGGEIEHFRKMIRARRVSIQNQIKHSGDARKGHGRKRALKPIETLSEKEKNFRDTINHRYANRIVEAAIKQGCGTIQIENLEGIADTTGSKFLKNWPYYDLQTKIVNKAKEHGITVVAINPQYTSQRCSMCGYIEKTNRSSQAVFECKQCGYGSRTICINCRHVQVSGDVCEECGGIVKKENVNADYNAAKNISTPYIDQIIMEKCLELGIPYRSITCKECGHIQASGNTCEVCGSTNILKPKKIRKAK
In words: cell_activity; PAM 5'-TTC; yeast, 45 C.

B1: sgRNA IR ; IR target (ssRNA ; dsDNA)
RNA: AUUUACUCUGUUUCGCGCGCCAGGGCAGUUAGGUGCCCUAAAAGAGCGAAGUGGCCGAAAGGAAAGGCUAACGCUUCUCUAACGCUACGGCGACCUUGGCGAAAUGCCAUCAAUACCACGCGGCCCGAAAGGGUUCGCGCGAAACUGAGUAAUGAAAGUCGCAUCUUGCGUAAGCGCGUGGAUUGAAACCACAGGGAGGGAGCAAACAA
DNA 1: CACAGGGAGGGAGCAAACAA
DNA 2: TTGTTTGCTCCCTCCCTGTG
For B1, the figures for the binding signal (with Cas-alpha 10 A40G+E81G [1]; in data set [2]) were about 5 fold vs wild type indels and about 17 fold vs wild type indels, respectively.

B2: sgRNA1, ade2 target 2, 20 nt spacer ; ade2 target 2 (ssRNA ; dsDNA)
RNA: AUUUACUCUGUUUCGCGCGCCAGGGCAGUUAGGUGCCCUAAAAGAGCGAAGUGGCCGAAAGGAAAGGCUAACGCUUCUCUAACGCUACGGCGACCUUGGCGAAAUGCCAUCAAUACCACGCGGCCCGAAAGGGUUCGCGCGAAACUGAGUAAUGAAAGUCGCAUCUUGCGUAAGCGCGUGGAUUGAAACUUUAGUGUAGGAACAUCAAC
DNA 1: TTTAGTGTAGGAACATCAAC
DNA 2: GTTGATGTTCCTACACTAAA
In the case of B2, the binding signal is ~3 fold vs wild type (red colonies, score 2) with Cas-alpha 10 A40G+E81G [3]; ~2 fold vs wild type (red colonies, score 2) with Cas-alpha 10 E81G; ~2 fold vs wild type (red colonies, score 2) with Cas-alpha 10 A40G.
